Paper PMC5440653, “SorLA in Interleukin-6 Signaling and Turnover” (Molecular and Cellular Biology, 2017)
Values belong to the molecule of their own block, whether it stands above or below them.

Experiments:
[1] = molecular target: SorLA Vps10p domain (human); assay: SPR; Biacore 3000, CM5 chip; purified soluble receptor immobilized (66 to 86 fmol/mm^2), ligand injected at 5 ul/min, 25°C, 10 mM HEPES, 150 mM NaCl, 1.5 mM CaCl2, 1 mM EGTA, 0.005% Tween 20, pH 7.4; Langmuir 1:1 model, global fitting
[2] = molecular target: T1, preformed sSorLA:IL-6 complex (human, UniProt Q92673 82-2137; P05231 30-212); assay: SPR; immobilized sSorLA first exposed to IL-6 (100 nM), then fresh buffer with 100 nM sIL-6R injected; n = 3; details: both partners purified
T1 construct: SorLA, human, luminal (extracellular) part, as m3; interleukin-6, human, recombinant, as m1; source: formed on the sensor chip: immobilized sSorLA exposed to IL-6 (100 nM)
T1 sequence (Q92673 82-2137, chain 1 of 2): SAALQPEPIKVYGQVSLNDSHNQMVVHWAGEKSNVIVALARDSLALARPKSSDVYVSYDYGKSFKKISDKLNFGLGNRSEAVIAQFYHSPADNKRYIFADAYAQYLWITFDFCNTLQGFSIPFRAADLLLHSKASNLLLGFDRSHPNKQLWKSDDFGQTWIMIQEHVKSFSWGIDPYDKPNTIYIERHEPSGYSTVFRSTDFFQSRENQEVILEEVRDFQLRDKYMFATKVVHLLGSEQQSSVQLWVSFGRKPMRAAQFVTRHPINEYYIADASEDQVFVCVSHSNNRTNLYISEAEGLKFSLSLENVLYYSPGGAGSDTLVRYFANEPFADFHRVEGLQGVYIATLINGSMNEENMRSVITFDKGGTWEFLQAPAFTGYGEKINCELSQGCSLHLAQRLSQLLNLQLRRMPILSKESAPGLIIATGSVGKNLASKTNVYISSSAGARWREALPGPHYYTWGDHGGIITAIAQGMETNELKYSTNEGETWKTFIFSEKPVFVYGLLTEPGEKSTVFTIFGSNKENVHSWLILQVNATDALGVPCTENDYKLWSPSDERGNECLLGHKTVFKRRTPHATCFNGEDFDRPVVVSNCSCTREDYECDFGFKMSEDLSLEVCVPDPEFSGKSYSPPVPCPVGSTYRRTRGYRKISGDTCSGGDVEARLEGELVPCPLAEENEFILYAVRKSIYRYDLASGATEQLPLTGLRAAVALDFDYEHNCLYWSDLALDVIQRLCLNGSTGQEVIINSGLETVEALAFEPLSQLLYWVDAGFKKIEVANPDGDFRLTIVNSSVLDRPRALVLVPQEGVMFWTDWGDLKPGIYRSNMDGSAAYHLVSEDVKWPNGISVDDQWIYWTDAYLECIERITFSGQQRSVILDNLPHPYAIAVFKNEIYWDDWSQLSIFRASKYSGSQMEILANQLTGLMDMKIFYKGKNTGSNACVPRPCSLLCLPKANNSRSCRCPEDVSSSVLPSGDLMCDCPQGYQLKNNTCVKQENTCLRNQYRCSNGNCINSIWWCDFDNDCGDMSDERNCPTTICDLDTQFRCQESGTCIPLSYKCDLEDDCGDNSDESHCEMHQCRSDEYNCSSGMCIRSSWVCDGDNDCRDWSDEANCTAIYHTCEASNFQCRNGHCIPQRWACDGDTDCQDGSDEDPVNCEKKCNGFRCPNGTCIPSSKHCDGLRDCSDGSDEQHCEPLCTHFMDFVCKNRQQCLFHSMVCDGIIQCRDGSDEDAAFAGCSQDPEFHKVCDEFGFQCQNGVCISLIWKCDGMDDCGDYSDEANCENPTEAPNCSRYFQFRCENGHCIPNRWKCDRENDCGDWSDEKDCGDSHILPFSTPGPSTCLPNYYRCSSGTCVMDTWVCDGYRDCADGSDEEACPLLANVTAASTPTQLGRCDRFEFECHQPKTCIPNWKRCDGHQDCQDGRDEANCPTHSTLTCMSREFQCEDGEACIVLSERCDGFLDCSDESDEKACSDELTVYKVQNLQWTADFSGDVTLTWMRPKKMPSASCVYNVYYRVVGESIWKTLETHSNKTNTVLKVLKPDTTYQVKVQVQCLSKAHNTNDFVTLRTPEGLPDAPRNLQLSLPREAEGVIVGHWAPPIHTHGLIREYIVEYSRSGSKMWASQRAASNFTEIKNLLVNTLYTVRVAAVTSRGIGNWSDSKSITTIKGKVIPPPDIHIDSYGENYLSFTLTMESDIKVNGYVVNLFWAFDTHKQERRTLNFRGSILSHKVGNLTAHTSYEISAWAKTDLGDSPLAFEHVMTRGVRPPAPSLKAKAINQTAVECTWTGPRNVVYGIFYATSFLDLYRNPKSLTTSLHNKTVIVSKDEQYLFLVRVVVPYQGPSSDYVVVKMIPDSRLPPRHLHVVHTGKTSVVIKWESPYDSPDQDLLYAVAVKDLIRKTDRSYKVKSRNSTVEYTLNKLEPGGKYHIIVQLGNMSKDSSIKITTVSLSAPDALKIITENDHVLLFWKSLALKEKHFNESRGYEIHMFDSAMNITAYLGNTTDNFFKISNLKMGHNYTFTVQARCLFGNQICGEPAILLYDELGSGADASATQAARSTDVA
T1 sequence (P05231 30-212, chain 2 of 2): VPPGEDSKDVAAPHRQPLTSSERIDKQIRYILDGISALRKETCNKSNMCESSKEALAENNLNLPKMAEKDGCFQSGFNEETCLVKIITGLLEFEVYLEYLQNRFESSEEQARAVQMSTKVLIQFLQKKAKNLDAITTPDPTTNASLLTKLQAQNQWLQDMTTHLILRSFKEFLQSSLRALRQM

[3] = molecular target: T2, soluble SorLA (SorLA ectodomain, luminal part) (human, UniProt Q92673 82-2137); assay: SPR; Biacore 3000, CM5 chip; purified soluble receptor immobilized (66 to 86 fmol/mm^2), ligand injected at 5 ul/min, 25°C, 10 mM HEPES, 150 mM NaCl, 1.5 mM CaCl2, 1 mM EGTA, 0.005% Tween 20, pH 7.4; Langmuir 1:1 model, global fitting; details: both partners purified
T2 construct: SorLA, human, luminal (extracellular) part; The introduction says that the propeptide is cut off in late Golgi compartments; also called sSorLA; the entire extracellular part of SorLA
T2 sequence (Q92673 82-2137): as the sequence (Q92673 82-2137, chain 1 of 2) above

Kd [1]: 12 nM
Molecule: Interleukin-6 (from UniProt P05231 30-212) (ligand)

Kd [1]: 9 nM
Molecule: soluble IL-6 receptor (IL-6R ectodomain) (from UniProt P08887 20-365)

Kd [2]: 8 nM | Kd [3]: ~34 nM
B1: soluble IL-6 receptor (IL-6R ectodomain) (receptor, human, UniProt P08887 20-365, looked up)
chain: LAPRRCPAQEVARGVLTSLPGDSVTLTCPGVEPEDNATVHWVLRKPAAGSHPSRWAGMGRRLLLRSVQLHDSGNYSCYRAGRPAGTVHLLVDVPPEEPQLSCFRKSPLSNVVCEWGPRSTPSLTTKAVLLVRKFQNSPAEDFQEPCQYSQESQKFSCQLAVPEGDSSFYIVSMCVASSVGSKFSKTQTFQGCGILQPDPPANITVTAVARNPRWLSVTWQDPHSWNSSFYRLRFELRYRAERSKTFTTWMVKDLQHHCVIHDAWSGLRHVVQLRAQEEFGQGEWSEWSPEAMGTPWTESRSPPAENEVSTPMQALTTNKDDDNILFRDSANATSLPVQDSSSVPLP
notes: interleukin-6 receptor (alpha chain), human, soluble form consisting only of the ectodomain; also called sIL-6R; recombinant human sIL-6R; source: bought: R&D Systems
